Test results published in the nanobody polyreactivity screen of Harvey et al. (2022).

Assay: yeast display, Sf9 membrane polyspecificity reagent, FACS + sequencing; frameworks hold sequencing errors
Method in brief: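 A synthetic nanobody library was expressed on Saccharomyces cerevisiae BJ5465 by galactose induction for 36–48 hours. The library was stained for 1 hour at 4 °C with 10% biotinylated, detergent-solubilized Sf9 membrane reagent and enriched with streptavidin microbeads before FACS. Low and high (top ~1%) gates were set on anti-HA fluorescence for expression and streptavidin fluorescence for reagent binding, and each polyreactivity label reflects the gate of origin.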

Sequence	polyreactivity (PSR sort gate)
QVQLVESGGGLVQAGGSLRLSGAASGRTFVYYAMGWYRQAPGKEREFVAAISRSGGRTSYADSVKGRFTISRDNAKNTVYLQMNSLKPEDTAVYDCAKRPQFFWSHPYDYWGQGTLVTVSS	high polyreactivity
QVQLVESGGGLVQAGGSLRLSGAASGSIFSHYAMGWYRQAPGKAWELVASISTADSTNYADSVKGRFTISRDNAKNTVYFQMYSLKPEDTAVYYCAAEYQSYAQYAWGYDYCGQGTQVTVSS	low polyreactivity
QVQLVESGGGLVQAGGSLRLSGAASGSSFLRNAMGWSRQAPGKERELVATISTGSGRTYYADSVKGRFTISRDNAKNTVYLQMTSLKPEDTAVYYCAASRTLRKHRYEYWGQGTKVTVSS	high polyreactivity
QVQLVESGGGLVQAGGSLRLSGAASGSTFRYYVMGWYRQAPGKERELVAGISYRGGTTYYADSVKGRFTISRDNAKNTVYLQMISLKPEDTAVYYCNAETAAAQASFDRLYVLLDYWGQGTQVTVSS	low polyreactivity
QVQLVESGGGLVQAGGSLRLSGAASGSTFYPNAMGRYRQAPGKERELVAAISGRGGRTYYADSVKGRFTISRDFAKNTVYLQINSLKPEDTAVYYCNIVRASDHYDYWGQGTQVTVSS	high polyreactivity
QVQLVESGGGLVQAGGSLRLSGAATGSIIHPYAMGWYRQAPGKERELLAAISKSGGNTYYADSVKGRITISRDNAKNTVYLQMNSLKPEDTAVYYCAALDYWGQGTQVTVSS	low polyreactivity
QVQLVESGGGLVQAGGSLRLSGDASGYIFVRYAMGWYRQAPGQARELVAAINSSGGRTYYADSVKGRFTISRDNAKNTVYLQMNSLKPEDTAVYYCAAYAYYRSGYRALEGYWGQGTQVTVSS	high polyreactivity
QVQLVESGGGLVQAGGSLRLSRAASGFTITYNAKGWSRPAPGKESELVAAITGDGGSTYYADSVKGRFTISRDNAKNTVYLQMNSLKPEDTAVYYCAAYVVWGGTDGRYDYWGQGTQVTVSS	low polyreactivity
QVQLVESGGGLVQAGGSLRLSRAASGGSLRLYAMRWYRQAHGKERELVSAINDRSGSTYYADSVKGRFTISRDNAKNTVYLKLNRLKPEDTAVYYCYAYGTPPGSDGQYDYWGQGTQVTVSS	high polyreactivity
QVQLVESGGGLVQAGGSLRLSRAASGITFGFKAMGWYRQAPGKERELVAAITWSVGRTYYADSVKGRFTISRDNAKNTVYLQMNSLKPEDTAVYYCAKDFEAGDDYFAYDYWGQGTQVTVSS	low polyreactivity
QVQLVESGGGLVQAGGSLRLSRAASGRTFYFNAMGWYRQAPGKERELVAGISGDGSTNYADSVKGRFTISRDNAKNTVYLQMNSLKPEDTAVYYCAKTLGSQNYDFDYWGQGTQVTVSS	low polyreactivity
QVQLVESGGGLVQAGGSLRLSRAGCGRIFFVYAMRWYRQAPGKERELVAALSVSDVSTSYADSVKGRFTISRDNAKNTVFLQMNSLKPEDTAVYYCLAAFRFYASSRIAGEDYWGQGTQVTVSS	low polyreactivity
QVQLVESGGGLVQAGGSLRLSRASSGVISYRNAMGWYRKAPGKERQLVASITSSGGRTYYADSVKGRFTISRDYATNSVFLQMNSLKPEDTAVYYCADDNWYKKLKRPSAYDYWGQGTQVTVSS	high polyreactivity
QVQLVESGGGLVQAGGSLRLSSAASGFIFDGNAMGWYRQAPGKERELVAAIRSGGRTNYADSVKGRFTISRDNAKNTVYLQMNSLKPEDTAVYYCAARSIYPYYYRRDNRYYYWGQGTQVTVSS	high polyreactivity
QVQLVESGGGLVQAGGSLRLSSAASGFIFPVYTMGWYRQAPGTERELLAAITQIGGSTHYADSVKGRFTISRDNAKNTVYLQMNSLKPVDTAVYYFNAVPSYGTEYDYWGQGTQVTVSS	low polyreactivity
QVQLVESGGGLVQAGGSLRLSSAASGFIFRTYAMGRYRQAHGKESQLVAAISGTTGSKYYADSVKGRFTISRDNAKNTVYLQMNSLKPEDTAVYYCAADFYWYIRYDYWGQGTQVTVSS	low polyreactivity

Sequence	polyreactivity (PSR sort gate)
QVQLVESGGGLVQAGGSLRLSSAASGFIIVFYAMGWYRQAPGKERELVAAITWSGGGTYYADSVKGRCTISRDNAKNTVYLQMNSLKPEDTAVYYCNAEEPQYYYVLDKLYDFWGQGTQVTVSS	low polyreactivity
QVQLVESGGGLVQAGGSLRLSSAASGFILDTNAMGWYRQAPGKERELVSAITKRGIRTYYADSVKGRFTISRDNAQNTVYLQMNSLKPEDTAVYYCNAQRPIATVWHRYDSWGQGTQVTVSS	high polyreactivity
QVQLVESGGGLVQAGGSLRLSSAASGFTFSQYAMGWYRQAPGKERELVAAISVSGGTTYYADSVKGRFTISRDNAKNTVYLQMNSLKPEDTAVYYCAARTPYSRSPYVNTSGYYYWGQGTQVTVSS	high polyreactivity
QVQLVESGGGLVQAGGSLRLSSAASGFTFWSKAMGWYRQAPGKERELVAAISRGGSTYYADSVKGRFTITRDNAKNTVYLQMNSLKPEDTAVYYCAAVRLSRVYYWGQGTQVTVSS	high polyreactivity
QVQLVESGGGLVQAGGSLRLSSAASGFTFYRNPMGWYRQAPGKERELVAAITRSGTSTYYADSVKGRFTISRDNAKNSVYLQKNSLKPEDTAVYYCNTVGYRGRSNSRFYYWGQGTQVTVSS	high polyreactivity
QVQLVESGGGLVQAGGSLRLSSAASGGTFTKNAMGWYRQAPGKERELVAAISWRGTSTYYADSVKGRFSISRDNAKNTVYLQMNSLKPDDTAVYFCLPWVGYGRYKPGYKYDYWGQGTQVTVSS	high polyreactivity
QVQLVESGGGLVQAGGSLRLSSAASGIIFGVYGMGWYRPAPGKERELVASIRYSSVRTYYADSVKGRFTISRDNAKNTVYLQMNSLKPEDTAVYYCAKYYVWPSYGYWGQGTQVTVSS	high polyreactivity
QVQLVESGGGLVQAGGSLRLSSAASGIIFKSYAMGWYRPAPGKERELVSAISGGGDTYYAYSVKGRFTISRDNAKNTVNLQMNSLKPEDTAVYYCNTDGSQGTIIAIFVKYDYWGQGTQVTVSS	low polyreactivity
QVQLVESGGGLVQAGGSLRLSSAASGIIFRVYTMGWYLQAPGKERELVAKISLGGARTYYADSVKGRFTISRDNAKNTVYLQMNSLKPEDTAVYYCNARSRWTAKFDYWGQGTQVTVSS	high polyreactivity
QVQLVESGGGLVQAGGSLRLSSAASGITFDDYAMGWNRQAPGKERELVAAITWSGDSTYYADSVKGRFTISRDNAKNTVYLQMNSLKPEDTAVYYCAAVSYYYSGYIRGYWGQGTQVTVSS	high polyreactivity
QVQLVESGGGLVQAGGSLRLSSAASGITFRTNTMGWYRQAPGKERELVASISSGTRTNYADSVKGRFTISRDNAKNTVYLQMNSLKPEDTAVDYCAAGPPRNRYRNARFDYWGQGTQVTVSS	high polyreactivity
QVQLVESGGGLVQAGGSLRLSSAASGITFYVYAKGRYRQAPGKERELVAAISGSGGNTYYADSVKGRFTISRDNAKNTVYLQMNSLKPEDTPVYYFNADDHSPYYGDLDYWGQGTQVSVSS	low polyreactivity
QVQLVESGGGLVQAGGSLRLSSAASGLIFTRYAMGWYRQATGKERELVAAISYSGTSTYYADSVKGRFTISRDNAKNTVYLQMNSLKPEDTAVYYCAARSSYPLKGYYWGQGTQVTVSS	high polyreactivity
QVQLVESGGGLVQAGGSLRLSSAASGNIFPAYPMGWYRQAPGKERELVAAISKSGGRTYYADSVKGRFTISRDNAKNTVYLQMNSLKPEDTAVYYALLTVLRAVPYSVRYDYWGQGTQVTVSS	high polyreactivity
QVQLVESGGGLVQAGGSLRLSSAASGNIFSDYAMGWNIQAPGKERELVAAISSGGNTNYADSVKGRFTISRDNAKNTVYLQMNSLKPEDTAVYYCAAVYNTTYTLLPEYIYDYWGHGTQVTVSS	low polyreactivity
